Activity data for three sequences are collected here from US20100036111.

Data set [1] deals with Klenow fragment exo- (KF exo-) (UniProt P00582). The settings on record: n=Ds (7-(2-thienyl)-imidazo[4,5-b]pyridine); dPa'TP insertion Vmax/KM; 10 mM MgCl2 pH 7.5 37C.
For data set [2] the target is unchanged. The note with it: n=Pa' (4-propynylpyrrole-2-carbaldehyde); dDsTP insertion Vmax/KM; 10 mM MgCl2 pH 7.5 37C.
Data set [3] shares this target. The settings on record: n=Pa (pyrrole-2-carbaldehyde); dDsTP insertion; Vmax/KM as printed (KM 26 uM and Vmax 28 imply 1.1e6); 10 mM MgCl2 pH 7.5 37C.

Where two headings read alike, the source gives them in different places.

Klenow fragment exo- (KF exo-), sequence (P00582 324-928): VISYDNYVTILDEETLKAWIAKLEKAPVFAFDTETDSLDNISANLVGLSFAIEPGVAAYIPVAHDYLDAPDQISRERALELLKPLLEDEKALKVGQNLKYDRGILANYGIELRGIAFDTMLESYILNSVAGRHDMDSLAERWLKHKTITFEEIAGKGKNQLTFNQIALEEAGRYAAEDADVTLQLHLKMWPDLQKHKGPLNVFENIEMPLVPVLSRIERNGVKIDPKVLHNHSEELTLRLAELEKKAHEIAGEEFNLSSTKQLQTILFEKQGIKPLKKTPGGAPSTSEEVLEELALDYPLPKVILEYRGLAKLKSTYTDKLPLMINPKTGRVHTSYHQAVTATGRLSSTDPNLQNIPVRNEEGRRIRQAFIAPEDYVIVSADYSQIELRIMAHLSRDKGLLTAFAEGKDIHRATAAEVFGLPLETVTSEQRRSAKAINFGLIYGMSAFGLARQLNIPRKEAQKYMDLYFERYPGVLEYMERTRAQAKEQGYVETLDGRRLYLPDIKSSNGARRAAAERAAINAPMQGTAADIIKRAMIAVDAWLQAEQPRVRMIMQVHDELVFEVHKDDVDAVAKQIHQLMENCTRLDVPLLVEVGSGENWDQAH

Turning to “AGCTCTNTCTTCCTCCCTATAGTGAGTCGTATTAT / ACTCACTATAGGGAGGAAGA [temp35Ds-1/primer]”, in data set [1], the activity was determined as 260000 %/min/M.

For the sequence “TCGAGANAGAAGCTCCCTATAGTGAGTCGTATTAT / ACTCACTATAGGGAGCTTCT [temp35Pa'-2/primer]”, in data set [2], the activity amounted to 880000 %/min/M. “TCGAGANAGAAGCTCCCTATAGTGAGTCGTATTAT / ACTCACTATAGGGAGCTTCT [temp35Pa-2/primer]”: the activity in data set [3] turned out to be 11000 %/min/M.
